Numbering of substitutions follows the chain as printed. Names may count otherwise.
B1: Ta.TDO: TDO homolog from Triticum aestivum, SEQ ID NO:10 (A4S from codon optimization) (protein, listed as Triticum aestivum)
chain: MASSDESPMVRPTVQELASAGVEEPPRQYVLPEQDRHGDLLAADEFPEPIPLIDLSRLTDADEAERLRAALQTWGFFLATNHGIEGSLMDAMMSVSREFFRQPAEEKQKCSNLVDGNGKDYQVEGYGSDKVVSEDQVLNWSDRLHLRVEPEDERNFAKWPSHPESFRDVLKEYASRTKEIRDLVLRSIAKLLEIDEDYFVNQISNKASGFARFNYYPPCPRPDLVLGLRAHSDGGLLTILFNDDTVGGLQVQRDGRWYNVSAKPHTLLINLADCLEIMNNGIFTSPIHRVVTNIKKDRLSLAVFYAVDAETMLEPAPGLLDDKRPPRYRKMLAKDFVAGLFEHFRQGKRFINTLKI
B2: Si.TDO: TDO homolog from Setaria italica, SEQ ID NO:8 (protein, listed as Setaria italica)
chain: MANESWKIPMLVQELAAKVQEPPSRYVQPEQQHPVSLVVGAEKPEAIPVIDLSRLLAADGADEEGSKLRLALQSWGLFLIDNHGIETSLMDDLINASREFFHLPLEEKQKCSNLIDGKHYQVEGYGNDPVASKDQILDWLDRLHLRVEPEDERNLVHWPEHPNSFRALLHKYTLNCKRIKDRILWAMAKSLGLDEDYIVAQFSGKAPSFARFNYYPPCPRPDIVFGAKPHSDGGVLTILLMDKDVGGLQVLRDGVWHNVPTSPHRLLVNIGDFSEIMSNGIFKSPVHRVVTNMGKERISLAMFHGLDPEKEIEPATALLHEKQLARYRKIKAKVYLAGFYEHFCRGTRFIDSEDLREVA
B3: TDO_6: Os.TDO variant, SEQ ID NO:38, G242S-P256E relative to D08 (protein)
chain: MADESWRAPALVQELAAKGVEEPPSRYLLREQDRPDVKLVAAELPEPIPVVDLGRLDGAEEATKLRVALQNWGFFLLTNHGIEASLMDDVMNLSREFFNQPIERKQKFSNLIDGKHFQIEGYGTDRVVTQDQVLDWSDRLHLRVEPKEEQDLAFWPDHPESFRDVLHKYASGCKRIRDDIIQAMAKLLELDEDYFLDRFNEAPTFARFNYYPPCPRPDLVFGIRPHSDGGLLTILLVDKDVSGLQVQRDGKWSNVEATPHTLLINLGDTMEVMSNGIFKSPVHRVVTNAEKERISLAMLYSVNDEKDIEPAAGLLDENRPARYRKVSVEEFRAGIFGKFSRGERYIDSLRI
modifications: TDO variant sequence
B4: TDO_4: Os.TDO variant, SEQ ID NO:34, H116N-G242S relative to D08 (protein)
chain: B3 chain with H116N, E256P
modifications: TDO variant sequence
B5: TDO_5: Os.TDO variant, SEQ ID NO:36, E120Q-G242S relative to D08 (protein)
chain: B3 chain with E120Q, E256P
modifications: TDO variant sequence
B6: TDO_1: Os.TDO variant, SEQ ID NO:28, P35S-H116N relative to D08 (protein)
chain: B3 chain with P35S, H116N, S242G, E256P
modifications: TDO variant sequence
B7: TDO_8: Os.TDO variant, SEQ ID NO:42, Q32K-I48L-V133I-G242S-P256E relative to D08 (protein)
chain: B3 chain with Q32K, I48L, V133I
modifications: TDO variant sequence
B8: TDO_7: Os.TDO variant, SEQ ID NO:40, G242S-S274C relative to D08 (protein)
chain: B3 chain with E256P, S274C
modifications: TDO variant sequence
B9: TDO_3: Os.TDO variant, SEQ ID NO:32, P35S-G242S relative to D08 (protein)
chain: B3 chain with P35S, E256P
modifications: TDO variant sequence
B10: Cl.Col.TDO1: TDO homolog from Coix lacryma-jobi, SEQ ID NO:14 (protein)
chain: MASSSWKVPTPVQELAATLEEPPSRYVLREKDRPSSPLVADDMPEPLPVINLSRLSEDAAEAAKLEAALQSWGLVLVTNHGIETSLMDDVMDTSREFFNQTLEEKQKYSNLIEGKRFQMEGYGNDRVSTEHQILNWNDRLHLKVAPDDERNYTHWPKHPESFRDVLHEYTLKTKKIRDNICSNGQDIGARFNYYPPCPRPDLVNGVQPHSDAGVLTILLVDKEIRGLQVQRDGIWYNVPRKPYTLLINLGDVMEIMSNGIFKSPVHRVVTNTEKERISLAMFYGVDAENVLEPAAGLLDEKRPARYRKVEITDFVAGVHEHFSRGTRFIESLKI
modifications: Coix lacryma-jobi
B11: Cl.Col.TDO2: TDO homolog from Coix lacryma-jobi, SEQ ID NO:16 (protein)
chain: MASSSWRVPTPVQELAAGVVEPPSQFVLQEQDRPESLLLATDMPEPIPVIDLSRLAAADEASKLRSALQTWGLFLVTNHGIEASLMDDVMAASRDFFYQPLEEKQKYSNLVGGKRFQMEGYGNDMVASQDQVLDWQDRLQLRVEPEDERNLAYWPKHPDSFRDLLHEYASKTKKVRDNVLQAMGKLLELGEDYFISQIGGKASAIARFNYYPPCPRPELVFGIKPHSDGGAVTILLVDNDVGGLQVQKDGIWYTVPSKPHTLVVNLGDSMEILNNGIFKSPVHRVVTNAEKERLSLAMFYGVEGQKVLEPAAALLGEERPARYRKIKAADYIVGLRQGIARGNRFIETLKI
modifications: Coix lacryma-jobi
B12: ANDge.TDO: TDO homolog from Andropogon gerardii, SEQ ID NO:12 (protein, listed as Andropogon gerardii)
chain: MASSSWRVPTPVQELAAGVVEPPSQFVLQEQDRPESLLLAADMPEPIPVIDLSRLSAADEASKLQSALQTWGLFLVTNHGIEASLMDEVMAASRDFFHQPLQEKQKYSNLIGGKRFQMEGYGNDMVTSQDQILDWQDRLQLRVEPEDERNLAYWPKHPDSFRDLLHEYASKTKKVRDNLLRAMGKILELGDDYFISQIGEKASAVARFNYYPPCPRPELVFGIKPHSDGGAVTILLVDNDVGGLQVQKDGIWYTVPSKPHTLVVNLADSMEIMNNGIFKSPVHRVVTNAEKERLSLAMFYGVEGQKMLEPAAGLLGEDRPARYRKIKAADYIVGLRQGIAKGQRFIETLKI

What was measured:
Format in all cases: in vivo
[1] = tested on: transgenic soybean plants; experiment: Mesotrione injury of R0 transgenic soybean plants expressing TDO homologs; conditions: 210 g a.i./ha mesotrione at V3-V4, rated 7-14 days after treatment, mean of all tested events
Method: Plant expression vectors comprising the selected TDO homologs under the control of one of two constitutive promoters were transformed into soybean via an Agrobacterium tumefaciens-mediated method. Following Agrobacterium transformation, R0 transgenic soybean plants containing a single copy of the transgene were identified through molecular characterization and segregation analysis. Transgenic and wild-type (control) plants were grown in 6-inch pots filled with BM7 soilless mix in a growth chamber under the conditions of 28° C./23° C. (light/dark) and a 16 hr light/8 hr dark photoperiod. Plants were fertilized with 15-5-15 liquid fertilizer at the V3-V4 growth stage and treated with 210 g a.i./ha mesotrione (1X=105 g a.i./ha; Callisto®, Syngenta in 1% crop oil). Plants were visually rated 7-14 days after treatment on a scale of 0% to 100%, with 0%=no injury and 100%=plant death, relative to the wild-type controls. The results summarized in Table 2 represent the mean of all tested events (10-15) for each construct.

[2] = tested on: transgenic soybean plants; experiment: Response of R0 soybean plants transformed with Round 2 TDO variants to mesotrione; conditions: R0 transgenic soybean sprayed with mesotrione
Text: The next set of experiments was focused on determining if the balance between improved enzyme stability could outweigh a reduction in activity observed at optimal temperatures in soybean plants. […] To test this hypothesis, the eight variants from Round 2 biochemical analysis described in the preceding paragraph were transformed into soybean through Agrobacterium-mediated transformation, along with three controls. One of the controls (TDO_9) was a variant from the high-throughput screens that had poor activity. Two other controls were the D08 variant and the Os.TDO. R0 transgenic soybean plants were sprayed with the mesotrione herbicide to screen for herbicide tolerance. […] These included the Os.TDO control, the D08 variant and one Round 2 variant. The plants were scored for percent injury as described in the previous examples.

transgenic cotton plants = experiment: Mesotrione treatment of cotton plants expressing TDO variants, crop injury; conditions: for Crop Injury (%), 210 g/ha (2X) Mesotrione / Crop Injury (%), 840 g/ha (8X) Mesotrione: R2 cotton sprayed at V3
Method: Cotton is a crop of interest that is often exposed to high temperature growing conditions and thus, selected TDO variants were tested in cotton. Three TDO variants, D08, TDO_6, and TDO_8 were transformed into cotton (along with the Os.TDO control) using similar expression elements in single-cassette vectors or as part of multi-cassette vectors. R2 transgenic cotton plants were then screened for tolerance to mesotrione. Sixteen plants from two events each per construct were sprayed with two rates (2X and 8X) of mesotrione at V3 stage under normal (80° F.) and hot (100° F.) growing conditions. In addition, the effect of heat treatment on TDO accumulation in cotton plants were measured by ELISA. Cotton plants were planted and grown under normal greenhouse conditions (80° F. day/70° F. night) until V3 growth stage. Half of the plants were then moved to a higher temperature growth chamber (100° F. day/82° F. night) for the heat treatment, whereas the remaining half of the plants stayed in the same greenhouse (80° F. day/70° F. night). At day 3 after the plants were placed under different temperature conditions, leaf samples were collected for TDO protein measurement. The plants in 100° F. growth chamber and in 80° F. greenhouse were both sprayed with 2X mesotrione (210 g a.i./ha). Leaf samples were collected again 7 days after mesotrione treatment (DAT: Days After Treatment) for protein assay. Table 5 compares protein levels of the TDO variants in transgenic cotton plants grown under the two tested conditions. The protein levels for the TDO variants were measured at three time points for plants: 1) just before entering the high temperature treatment, 2) three days following placement into control (normal growth temperature) or high temperature (100° F.), and 3) 7 days after a 2X mesotrione spray.

[3] = promoter Constitutive 2, 3' UTR B

| Molecule | % Injury [1, 3] [%] | R0 % Injury [2] [%] | other results |
| --- | --- | --- | --- |
| B1 | 50 |  |  |
| B2 |  |  | % Injury ([1]; promoter Constitutive 1, 3' UTR A): 35% |
| B3 |  | 31 | Crop Injury (%), 210 g/ha (2X) Mesotrione (transgenic cotton plants; Under 80° F.): 0%; Crop Injury (%), 840 g/ha (8X) Mesotrione (transgenic cotton plants; Under 80° F.): 0%; Crop Injury (%), 210 g/ha (2X) Mesotrione (transgenic cotton plants; Under 100° F.): 0%; Crop Injury (%), 840 g/ha (8X) Mesotrione (transgenic cotton plants; Under 100° F.): 0%; injury rates relative to Os.TDO controls (transgenic cotton plants; cotton at the higher temperature): trending even lower than the Os.TDO controls |
| B4 |  | 32 |  |
| B5 |  | 30 |  |
| B6 |  | 30 |  |
| B7 |  | 31 | Crop Injury (%), 210 g/ha (2X) Mesotrione (transgenic cotton plants; Under 80° F.): 0.25%; Crop Injury (%), 840 g/ha (8X) Mesotrione (transgenic cotton plants; Under 80° F.): 0%; Crop Injury (%), 210 g/ha (2X) Mesotrione (transgenic cotton plants; Under 100° F.): 0.27%; Crop Injury (%), 840 g/ha (8X) Mesotrione (transgenic cotton plants; Under 100° F.): 0% |
| B8 |  | 32 |  |
| B9 |  | 35 |  |
| B10 | 61 |  |  |
| B11 | 53 |  |  |
| B12 | 55 |  |  |
